Source: patent US7884067B2, “Peptides derived from cadherin and methods of use thereof” (Mount Sinai School of Medicine of New York University, priority 2001, dated 2011)

Experiments:
N-cadherin = assay: In vitro ε-cleavage assay, membranes from mouse brain neuronal cultures; format: biochemical; settings: PS1+/− neurons, L-685,458 (0.5 μM)
Method: Primary, neuronal cultures. Mixed hippocampal and cortical neuronal cultures were prepared from E18 mouse or rat brains as described by Banker and Goslin (1991) Culturing Nerves Cells, London, MIT Press. Neurons were maintained 10 days in vitro in glial conditioned MEM containing 2% glucose and N2 supplements as described by Bottenstein and Sato (1979) Proc. Natl. Acad. Sci. USA 76: 514-517, and then were stimulated for 15 minutes with Mg2+-free Hanks' balanced salt solution (HBSS, Sigma) containing KCl (50 mM), L-Glutamate ([…]) or NMDA ([…]). D-APV ([…]) was applied 15 minutes before stimulation.
In vitro γ-secretase-like ε-cleavage assay. Cells were washed in PBS, resuspended in 1 ml of 4° C. hypotonic buffer (10 mM MOPS, pH 7.0, 10 mM KCl) and homogenized on ice. A post-nuclear supernatant was prepared by centrifugation at 1000×g for 15 minutes at 4° C. Crude membranes were isolated from the post-nuclear supernatant by centrifugation at 16,000×g for 40 minutes at 4° C. The membranes were then resuspended in […] of assay buffer (150 mM sodium citrate, pH 6.4, 1× Complete protease inhibitor cocktail), and incubated at 37° C. for 2 hours. Samples were either analyzed directly by WB or separated into pellet (P100) and supernatant (S100) fractions by ultracentrifugation for 1 hour at 100,000×g at 4° C. The S100 and P100 fractions were then analyzed by WB.

E-cadherin = E-cadherin processing in E-cadherin-transfected PS1+/+ fibroblasts (Western blot, C36); format: cell-based, mouse; settings: L-685,458 0.5 μM, 6 hours, compared to non-treated controls
Method: Cell Cultures and transfections. Cells were grown in Dulbecco's Modified Eagle Medium (DMEM) plus 10% fetal bovine serum, penicillin and streptomycin in 5% CO2 at 37° C. Fibroblast cell lines derived either from wild-type (WT) (PS1+/+) or PS1 knock-out (PS1−/−) mice were stably transfected with human E-cadherin as described by Baki et al., (2001). A431 cells were from American Type Culture Collection. Stable transfectants of PS1 cDNA in HEK293 cells were prepared as described by Georgakopoulos et al., (1999). A431D cells stably transfected with wild-type or GGG759-761AAA mutant E-cadherin were provided by Dr. A. B. Reynolds.
Immunoprecipitations (IPs), immunoblotting, immunofluorescence and confocal microscopy. For WB analysis of cell extracts, cells were washed with PBS and then solubilized in RIPA buffer. For IPs cells were solubilized in Hepes buffer (25 mM Hepes [pH 7.4], 150 mM NaCl, 1× Complete protease inhibitor cocktail, Roche) containing 1% digitonin (IPs with I-R222 and PI-R222 antibodies) or 1% Triton X-100 (IPs with β-catenin and desmoglein antibodies). Following centrifugation at 17,000×g for 10 min, supernatants (1 mg protein) were pre-cleared with protein A- or protein G-agarose (Pierce) for 2 hours. […] IPs were washed with Hepes buffer containing either 1% digitonin or 1% Triton X-100 and analyzed by SDS-PAGE. […]

c-fos = c-fos mRNA (RT-PCR) and protein (Western blot) in L cells; format: cell-based
Method: Reverse Transcriptase (RT)-PCR Analysis. Total RNA was extracted from cells using a RNeasy Mini Kit (Qiagen) according to instructions by the manufacturer. Analysis of gene expression was performed using semiquantitative RT-PCR. The following primers were used: 5′-[…]-3′ (SEQ ID NO: 13) and 5′-[…]-3′ (SEQ ID NO: 14) for c-fos; 5′-[…]-3′ (SEQ ID NO: 15) and 5′-[…]-3′ (SEQ ID NO: 16) for gapdh.
Semi-quantitative RT-PCR was used to determine relative levels of c-fos or gapdh mRNAs from L cells transfected either with vector (vector) or with 0.5 mg of pN-Cad/CTF2 (N-Cad/CTF2). The graph in FIG. 9C represents the relative abundance of c-fos-specific PCR products following quantitation of the mRNA signals shown in the upper panel.
Extracts from L cells transfected with increasing amount of pN-Cad/CTF2 were probed on WBs with anti-c-fos (FIG. 9D, upper panel), anti-β-tubulin (FIG. 9D, middle panel) or C32 (FIG. 9D, lower panel) antibodies. Bars in lower panel represent the relative amounts of c-fos protein detected on WBs shown in the upper panel.

Row | Molecule | N-Cad/CTF2 peptide (N-cadherin) | cellular E-Cad/CTF1 (E-cadherin) | cellular c-fos mRNA (c-fos; 0.5 mg of pN-Cad/CTF2, vs vector, FIG. 9C) | c-fos protein (c-fos; increasing amount of pN-Cad/CTF2, FIG. 9D) | levels of β-tubulin (c-fos; pN-Cad/CTF2, FIG. 9D) | expression of gapdh mRNA (c-fos; pN-Cad/CTF2 vs vector, FIG. 9C)
1 | CC(C)C[C@H](NC(=O)[C@H](Cc1ccccc1)C[C@@H](O)[C@H](Cc1ccccc1)NC(=O)OC(C)(C)C)C(=O)N[C@@H](Cc1ccccc1)C(N)=O [L-685,458] | inhibited | increased cellular E-Cad/CTF1 |  |  |  | 
2 | N-Cad/CTF2: chicken cytoplasmic domain of N-cadherin (N-Cad/CTF2) inserted into vector pECE, expressed in L cells (protein) KRRDKERQAKQLLIDPEDDVRDNILKYDEEGGGEEDQDYDLSQLQQPDTVEPDAIKPVGIRRLDERPIHAEPQYPVRSAAPHPGDIGDFINEGLKAADNDPTAPPYDSLLVFDYEGSGSTAGSLSSLNSSSSGGEQDYDYLNDWGPRFKKLADMYGGGDD |  |  | markedly reduces | markedly reduces | no effect | no effect
